Reference: patent US20230025129A1 (KYMAB, published 2023)

T1: human matriptase-2 ECD protein his tag (human, UniProt Q8IU80 78-811)
T1 sequence: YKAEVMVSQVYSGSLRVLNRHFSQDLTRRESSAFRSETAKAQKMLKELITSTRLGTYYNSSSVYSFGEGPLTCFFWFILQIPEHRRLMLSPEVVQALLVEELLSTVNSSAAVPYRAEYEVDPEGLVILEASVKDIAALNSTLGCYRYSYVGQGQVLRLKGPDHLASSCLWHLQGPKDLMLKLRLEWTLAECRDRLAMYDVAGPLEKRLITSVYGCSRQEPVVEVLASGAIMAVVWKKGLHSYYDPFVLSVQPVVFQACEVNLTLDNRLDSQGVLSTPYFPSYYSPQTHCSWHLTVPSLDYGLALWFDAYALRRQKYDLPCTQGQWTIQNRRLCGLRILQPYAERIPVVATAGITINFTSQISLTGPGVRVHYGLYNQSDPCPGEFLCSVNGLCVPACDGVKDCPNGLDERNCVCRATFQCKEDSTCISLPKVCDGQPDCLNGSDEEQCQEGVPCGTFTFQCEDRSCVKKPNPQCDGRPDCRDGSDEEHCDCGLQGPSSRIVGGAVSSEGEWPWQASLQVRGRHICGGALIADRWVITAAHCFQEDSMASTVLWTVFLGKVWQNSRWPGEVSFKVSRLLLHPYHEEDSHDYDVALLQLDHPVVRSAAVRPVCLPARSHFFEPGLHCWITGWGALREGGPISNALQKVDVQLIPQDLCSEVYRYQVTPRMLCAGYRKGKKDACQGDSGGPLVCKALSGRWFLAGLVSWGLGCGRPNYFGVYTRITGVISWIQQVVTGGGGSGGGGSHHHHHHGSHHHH

T2: mouse matriptase-2 ECD protein his tag (mouse, UniProt Q9DBI0 80-811)
T2 sequence: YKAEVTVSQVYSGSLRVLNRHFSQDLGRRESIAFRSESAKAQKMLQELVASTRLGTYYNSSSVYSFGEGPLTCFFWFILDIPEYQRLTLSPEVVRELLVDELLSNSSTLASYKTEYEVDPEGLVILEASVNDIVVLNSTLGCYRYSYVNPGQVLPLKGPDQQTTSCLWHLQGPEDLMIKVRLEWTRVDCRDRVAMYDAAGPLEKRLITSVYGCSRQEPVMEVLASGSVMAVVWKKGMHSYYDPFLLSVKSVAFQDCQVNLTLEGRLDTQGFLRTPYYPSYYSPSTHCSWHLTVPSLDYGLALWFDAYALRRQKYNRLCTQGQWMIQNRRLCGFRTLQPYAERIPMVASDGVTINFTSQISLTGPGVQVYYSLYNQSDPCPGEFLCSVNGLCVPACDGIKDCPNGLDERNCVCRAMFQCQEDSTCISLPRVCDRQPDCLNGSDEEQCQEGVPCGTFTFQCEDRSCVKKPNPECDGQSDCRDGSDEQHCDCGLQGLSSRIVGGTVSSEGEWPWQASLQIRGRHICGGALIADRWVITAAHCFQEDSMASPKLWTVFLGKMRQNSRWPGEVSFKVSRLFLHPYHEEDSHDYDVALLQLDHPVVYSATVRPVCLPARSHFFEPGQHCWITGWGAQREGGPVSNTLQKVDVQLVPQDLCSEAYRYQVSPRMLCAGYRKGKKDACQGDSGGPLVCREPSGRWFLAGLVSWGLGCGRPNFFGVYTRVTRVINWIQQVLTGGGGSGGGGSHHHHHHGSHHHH

T3: human MTP-2 expressed on HEK293 cells (human, UniProt Q8IU80 1-811)
T3 sequence: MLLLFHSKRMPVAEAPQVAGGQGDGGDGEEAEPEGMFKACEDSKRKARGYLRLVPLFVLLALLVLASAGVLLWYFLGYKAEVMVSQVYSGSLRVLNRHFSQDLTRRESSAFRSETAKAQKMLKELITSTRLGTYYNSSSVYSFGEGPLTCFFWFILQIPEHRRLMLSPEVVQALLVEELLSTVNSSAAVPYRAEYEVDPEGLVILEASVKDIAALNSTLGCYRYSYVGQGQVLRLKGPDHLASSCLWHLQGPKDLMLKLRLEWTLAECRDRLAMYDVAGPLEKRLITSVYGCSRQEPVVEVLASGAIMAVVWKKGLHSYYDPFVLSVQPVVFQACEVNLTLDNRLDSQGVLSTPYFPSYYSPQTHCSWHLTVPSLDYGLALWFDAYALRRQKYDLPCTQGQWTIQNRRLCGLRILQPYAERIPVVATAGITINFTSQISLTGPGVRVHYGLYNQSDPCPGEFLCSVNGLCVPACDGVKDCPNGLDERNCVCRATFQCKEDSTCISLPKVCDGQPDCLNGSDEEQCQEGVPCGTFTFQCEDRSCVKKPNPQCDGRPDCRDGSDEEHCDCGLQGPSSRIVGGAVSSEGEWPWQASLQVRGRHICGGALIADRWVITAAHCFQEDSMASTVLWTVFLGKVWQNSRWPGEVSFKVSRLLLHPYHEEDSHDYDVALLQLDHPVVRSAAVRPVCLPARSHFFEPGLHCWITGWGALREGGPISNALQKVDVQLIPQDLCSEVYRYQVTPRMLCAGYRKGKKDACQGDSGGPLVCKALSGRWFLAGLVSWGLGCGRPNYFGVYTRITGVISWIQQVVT


Columns and labels:
Test in all cases: cell-based or functional assay
[1] = target: T1, human matriptase-2 ECD protein his tag
[2] = target: T2, mouse matriptase-2 ECD protein his tag
[3] = target: T3, human MTP-2 expressed on HEK293 cells

Row | Binder | Inhibition enzymatic activity human MTP2 protein (IC50) [1] | Inhibition enzymatic activity mouse MTP2 protein (IC50) [2] | Inhibition enzymatic activity human MTP2 on cells (IC50) [3]
1 | NORI-022 (antibody, human IgG4 S228P, lambda, V domains shown) VH: EVRLVESGGGLVQSGGSLRLSCAASGFTFSTYTMNWVRQAPGKGLEWVSYISIRNSIIDYADSVKGRFTISRDNAKNSLYLQMNSLRDEDTAVYYCAREEFCGTTSCYFLDYWGQGILVTVSS VL: QSVLTQPPSVSGAPGQRVTISCTGSSSNIGAGYDVHWYQQLPGTAPKLLIYGNSNRPSGVPDRFSGSKSGTSASLAITGLQAEDEADYYCQSYDSSLSGYVFGTGTKVTVLG | 4.36 nM | 2.98 nM | 0.765 nM
2 | NORI-032 (antibody, human IgG4 S228P, lambda, V domains shown) VH: QVQLVQSGAEVRKPGAAVKVSCKASGYTFSSFGITWIRQAPGQGLEWMGWISAYNGISNSAQKVQGRVTMTTDTSTSTAYMELRSLRSDDSAVYYCARDRANRDALDVWGQGTKVTVSL VL: SHELTQPPSMSVSPGQTASITCSGDELGDRYACWYQQKPGQSPVLVIYQDTKRPSGIPERFSGSISGNTATLTISGTQAMDEADYYCQAWDSSTVVFGGGTKLTVLG | 1.6 nM | 0.716 nM | 1.66 nM
3 | NORI-024 (antibody, human IgG4 S228P, lambda, V domains shown) VH: QVQLVQSGPELKKPGASVKVSCKASGYTFTNFGISWVRQAPGQGLEWMGWISAYSGFTNFAQKFQGRVSMTTDTSTSTVYMELKSLRSDDTAVYYCAREGYSNYEDWFDPWGQGTLVTVSS VL: SYELTQPPSVSVSPGQTARITCSGDALPKKYAYWYQQKSGQAPVLVIYEDSKRPSGIPERISGSNSGTMATLTISGAQVEDEADYYCYSTDSSGNHRVFGGGTKLTVLG | 10.5 nM | 6.8 nM | 8.04 nM
4 | NORI-027 (antibody, human IgG4 S228P, lambda, V domains shown) VH: QVQLVQSGAELKKPGASVKVSCKASGYTFNNYGISWVRQAPGQGLEWMGWISAYSGYTNIAQKFQGRVTMTTDTSTNTVYMELGSLRSDDTAVYYCAREGYSNFEDWFDPWGQGTLVTVSS VL: SYELTQPPSVSVSPGQTARITCSGDELPKKYAYWYQQKSGQAPVLVIYEDSKRPSGIPERISGSNSGTMATLTISGAQVEDEADYYCYSTDSSGNHRVFGGGTKLTVLG | 24.9 nM | 40.8 nM | 16.9 nM
5 | NORI-031 (antibody, human IgG4 S228P, lambda, V domains shown) VH: QLQLQESGPGLVKPSETLSLTCTVSGGAISSSNYFWGWIRQSPGKGLEWIGSMYYTGITYYNPSLKSRVTISVDTSKNQLSLKVNSVTAADTAVYYCARQDGFRTGWFDPWGQGTLVTVSS VL: SYELTQPPSVSVSPGQTATLTCSGDKLGDNYVCWFQQKPGQSPLLVMYQDTKRPSGIPERFSGSNSGNTATLTISGTQALDEADYYCQAWDSRTVVFGGGTKLTVLG | 10.3 nM | 27 nM | 3.51 nM
6 | NORI-026 (antibody, human IgG4 S228P, kappa, V domains shown) VH: QVQLVESGGGVVQPGRSLRLSCAASGFTFSYFGMHWVRQAPGKGLEWVADISYDGSDENYADSVKGRFTISRDNSKNTLSLQMNSLRAEDTAVYYCAKETYQSLMYLEYWGQGILVTVSS VL: AIQMTQSPSSLSASVGDRVTITCRASQDIRNDLGWYQQKPGKAPKLLIYTAPSLQSGVPSRFSGSGSGTDFTLTIGSLQPEDFATYYCLQDYNYPWTFGQGTKVEIKR | 5.11 nM | 6.22 nM | 0.817 nM
7 | NORI-025 (antibody, human IgG4 S228P, lambda, V domains shown) VH: QVQLVESGGGVVQPGRSLRLSCTASGVTFTNFDMHWVRQTPGKGLEWVAVIWYDESYSYYADSVQGRFTISRDNSKNSLYLQMNSLRADDTAVYYCARGWTGSYVFDYWGQGTLVTVSS VL: QSVLTQPPSVSEAPRQRVTISCSGSSSNIGNNAVNWYQQLPGKAPKLLISYDDLLPSGVSDRFSGSKSGTSASLAISGLQSADEADYYCAAWDDSLNAVVFGGGTKLTVLG | 3.27 nM | 6.21 nM | 1.88 nM
8 | NORI-030 (antibody, human IgG4 S228P, lambda, V domains shown) VH: QVQLVESGGGVVQPGRSLRLSCAASGFTFSNFDMDWVRQAPGRGLEWVALISYDGSKKYYADSVKGRFTISRDNSKNTLYLQMNSLRGEDTAVYFCAKEGYGGYDGFDYWGQGTLVTVSS VL: QSVLTQPPSVSEAPRQRVTISCSGSTSNIGNNAVNWYQQLPGKAPKLLISYDYVVSSGVSDRFSGSKSGTSASLAISGLQSADEADYYCSTWDDGLNGVVFGGGTKLTVLG | 1.88 nM | 6.66 nM | 0.227 nM
9 | NORI-028 (antibody, human IgG4 S228P, lambda, V domains shown) VH: EVQLVESGGAVVRPGGSLRLSCAISGFILDDYGMNWVRQGPGKGLEWVAGISWNGDSTRYADSVKGRFTISRDNAQNSLYLQMNSLRAEDTALYFCAREYSGDFYYYYYGMDVWGQGTTVTVSS VL: QSALTQPPSASGSPGQSVTISCTGTSSDVGFYNFVSWYQHHPGKAPKLMIYEVSKRPSGVPDRFSGSKSANTASLTVSGLQAEDEADYYCSSYAGSNNLVFGGGTKLTVLG | 11.8 nM | 8.96 nM | 3.85 nM
10 | NORI-029 (antibody, human IgG4 S228P, lambda, V domains shown) VH: EVQLVESGGGLVKPGRSLRLSCTASGFTFGDYVMSWFRQAPGKGLEWVGFIRSKPYSETTEYAASVRGRFTISRDDSKSIAYLQMNSLKTEDTAVYYCTRALYDLLTGPWMGGDYFYALDVWGQGTTVTVSS VL: QSALTQPPSASGSPGQSVTISCTGTSSDVGDYNYVSWYQQHPGKAPKLMIYEVSKRPSGVPDRFSGSKSGNTASLTVSGLQAEDEADYYCKSYAGSNNLVFGGGTKLTVLG | 2 nM | 9.35 nM | 0.243 nM
11 | NORI-023 (antibody, human IgG4 S228P, lambda, V domains shown) VH: QVQLVESGGGLVKPGGSLRLSCAASGFTFSDYYMSWIRQAPGKGLEWVSYISSSGGNRYYADSVKGRFTISRDNAKNSLYLQMNSLRAEDTAVYYCARGGLRYFDWADFWGQGTLVTVSS VL: QSVLTQPPSVSAAPGQKVTISCSGSSSNIGNNYVSWYQQLPGTAPKLLIYDNNKRPSGIPDRFSGSKSGTSATLGIPELQTGDEADYYCGTWDNSLSAGVFGGGTKLTVLG | 5.45 nM | 2.92 nM | 13.2 nM
